Consider five molecules from US20060140858A1, “Drug pre-targeting by means of bi-specific antibodies and hapten constructs comprising a carrier peptide and the active agent(s)” (Immunomedics, Inc., priority 2002, published 2006).

The conditions of series [1]: mouse, in vivo; cited from earlier work.
Another series has as its system GW-39 tumor. The experiment in a line: Tumor/nontumor ratios for directly labeled ^99mTc-hMN-14 Fab′. Type of series: in vivo, nude mice. The conditions noted are these: 3 h after injection. As to the method: (§1) Humanized MN-14 (hMN-14) Fab′-SH was prepared in a similar manner as described previously. ^99mTc-pertechnetate (30 mCi) was added directly to the lyophilized hMN-14-Fab′-SH (1.0 mg) and injected in animals within 30 minutes. This product had 3.0% unbound ^99mTc by ITLC and an immunoreactive fraction of 92%.
Female NCr nude mice Charles River Laboratories, Inc., Fredrick Md. or Taconic, Germantown, N.Y.) approximately 6 weeks of age were implanted subcutaneously with 0.2 ml of this suspension. Two to three weeks after implantation of tumors, animals were injected with the radiolabeled peptide alone, or for pretargeting, with the bsMAb followed 1 to 2 days later with the radiolabeled peptide. […] At the designated times after the peptide injection, animals were anesthetized, bled by cardiac puncture, and then euthanized prior to necropsy. Tissues were removed, weighed and counted by gamma scintillation using appropriate windows for each radionuclide along with standards prepared from the injected materials. When dual isotope counting was used, appropriate backscatter correction was made. GI tissues (stomach, small intestine and large intestine were weighed and counted with their contents. Data are expressed as the percent injected dose per gram tissue (% ID/g) and the ratio of the percentages in the tumor to the normal tissues (T/NT). All values presented in the tables and figures represent the mean and standard deviation of the calculated values with the number of animals used for each study provided therein.

Series [2] can be described thus: Immunoreactive fraction of ^99mTc-hMN-14 Fab′. Format: binding. On the procedure: as §1
The next series concerns 679 IgG. The experiment in a line: Binding of labeled peptide to excess 679 IgG by size exclusion HPLC. Details: species or system murine. To be noted: ^90Y labeled peptide. On the procedure:
The ^90Y (˜400 μCi/kit) was diluted to 1 mL in deionized water and added to the lyophilized kits. The kits were heated in a boiling water bath for 15 min, the vials were cooled to room temperature and the labeled peptides were evaluated by reverse phase HPLC (HPLC conditions: Waters Nova-Pak C-18, 8×100 mm RCM column eluted at 3 mL/min with a linear gradient from 100% (0.1% TFA in H2O) to 100% (90% CH3CN, 0.1% TFA, 10% H2O)).
The ^111In (˜300 μCi/kit) was diluted to 0.5 mL in deionized water and added to the lyophilized kits. The kits were heated in a boiling water bath for 15 min, the vials were cooled and 0.5 mL of 2.56×10^−5 M In in 0.5 M acetate buffer was added and the kits were again heated in the boiling water bath for 15 min. The labeled peptide vials were cooled to room temperature and evaluated by reverse phase HPLC (HPLC conditions: Waters Nova-Pak C-18, 8×100 mm RCM column eluted at 3 mL/min with a linear gradient from 100% (0.1% TFA in H2O) to 100% (90% CH3CN, 0.1% TFA, 10% H2O)).
The mixture was centrifuged and DTPA was added to a final concentration of 3 mM. After 15 min at room temperature, the final volume was raised to 1.0 mL with 0.1 M sodium acetate, pH 6.5. The amount of unbound isotope was determined by reverse phase HPLC and ITLC developed in saturated sodium chloride solution. […]

Series [3] concerns the target Ac-Lys(DTPA)-Tyr-Lys(DTPA)-Lys(Tscg-Cys)-NH2 (IMP 192). Nature of the series: in vivo, calculated from biodistribution in GW-39 tumor-bearing mice, 1 h after 99m-Tc-IMP-192, assuming one peptide per bsAb.
Series [4] shares this target. The experiment in a line: in vivo, calculated from biodistribution in GW-39 tumor-bearing mice, 3 h after 99m-Tc-IMP-192, assuming one peptide per bsAb.
Series [5] shares this target. The experiment in a line: in vivo, calculated from biodistribution in GW-39 tumor-bearing mice, 24 h after 99m-Tc-IMP-192, assuming one peptide per bsAb.
The target of series [6] is carcinoembryonic antigen (CEA) (UniProt P06731). The experiment in a line: analytical size exclusion HPLC, radioiodinated bsAb with 10-20x molar excess of CEA.
The target in series [7] is Ac-Lys(DTPA)-Tyr-Lys(DTPA)-Lys(Tscg-Cys)-NH2 (IMP 192). Nature of the series: in vivo, calculated from biodistribution in GW-39 tumor-bearing mice, 30 min after 99m-Tc-IMP-192, assuming one peptide per bsAb.
Series [8] can be described thus: Enzymatic analysis of carboxylesterase-DTPA conjugate. Format: biochemical, rabbit. As to the method:
(§2) After 1 hour of incubation, the mixture is pre-purified on two 5-mL spin-columns (Sephadex G50/80 in 0.1 M sodium phosphate pH 7.3) to remove excess reagent and DMSO. The eluate is purified on a TSK 3000G Supelco column using 0.2 M sodium phosphate pH 6.8 at 4 ml/min. The fraction containing conjugate is concentrated on a Centricon-10™ concentrator, and buffer-exchanged with 0.1 M sodium acetate pH 6.5. […] Incorporation by HPLC and ITLC analyses is 97.7%.

The subject of another series is hMN-14 Fab′×734 Fab′. Nature of the series: HPLC complexation of In-111 carboxylesterase-DTPA with bi-specific antibody. Format: binding. To be noted: 20-fold molar excess of hMN-14 Fab′×734 Fab′. On the procedure:
as §2

The star is where a group is joined. HSG = histamine succinyl glycyl group, O=C(CCC(=O)NCC(=O)*)NCCc1c[nH]cn1; DOTA = O=C(O)CN1CCN(CC(=O)O)CCN(CC(=O)*)CCN(CC(=O)O)CC1

Chain of carcinoembryonic antigen (CEA) (P06731 35-685 limits assumed): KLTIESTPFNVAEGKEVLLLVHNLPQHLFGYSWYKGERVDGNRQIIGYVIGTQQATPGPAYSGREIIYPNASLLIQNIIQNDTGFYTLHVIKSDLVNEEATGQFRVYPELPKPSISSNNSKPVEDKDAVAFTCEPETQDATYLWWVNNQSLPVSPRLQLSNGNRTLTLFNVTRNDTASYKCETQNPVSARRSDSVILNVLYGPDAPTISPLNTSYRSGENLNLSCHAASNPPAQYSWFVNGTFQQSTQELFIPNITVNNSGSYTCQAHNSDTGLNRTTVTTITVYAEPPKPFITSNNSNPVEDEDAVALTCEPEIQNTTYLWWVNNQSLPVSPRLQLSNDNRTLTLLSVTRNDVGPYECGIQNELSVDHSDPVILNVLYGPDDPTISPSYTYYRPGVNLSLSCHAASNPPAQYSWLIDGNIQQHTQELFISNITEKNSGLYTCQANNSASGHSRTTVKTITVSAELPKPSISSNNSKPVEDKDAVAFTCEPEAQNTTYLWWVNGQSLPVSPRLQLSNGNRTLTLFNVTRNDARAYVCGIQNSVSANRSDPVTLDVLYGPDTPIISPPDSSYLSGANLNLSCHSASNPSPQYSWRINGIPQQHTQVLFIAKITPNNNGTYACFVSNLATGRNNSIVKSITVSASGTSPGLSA

Take `COc1cccc2c1C(=O)c1c(O)c3c(c(O)c1C2=O)C[C@@](O)(C(=O)CO)C[C@@H]3O[C@H]1C[C@H](N)[C@H](O)[C@H](C)O1` [Doxorubicin]: in series [1], the hepatobiliary clearance was roughly 95%.
In the case of “^99mTc-hMN-14 Fab′: humanized MN-14 anti-CEA Fab′ directly radiolabeled with ^99mTc”, the Tumor/nontumor ratio with GW-39 tumor (Blood) was 1.0 ± 0.01; in the series with GW-39 tumor (Kidney), 0.02 ± 0.001; in the series with GW-39 tumor (Liver) it was 0.2 ± 0.02; in the series on GW-39 tumor (Lungs) it was 0.7 ± 0.1; in the series with GW-39 tumor (Spleen), 0.9 ± 0.4. The molecule further gave an immunoreactive fraction in [2] of 92%.
With “^90Y-IMP-241: IMP 241 divalent HSG-DOTA peptide radiolabeled with ^90Y ({DOTA}-FK(HSG)YK(HSG)-NH2; not fully specified (residue 3); also: DOTA loaded with 90Y)”, the “binding to excess 679 IgG by size exclusion HPLC” value in the series on 679 IgG is “binding to the antibody”.
Regarding “hMN-14 × 734 (Fab × Fab) bi-specific antibody (bispecific antibody)”, the % saturation of the available DTPA binding sites on the tumor bound bsAb in series [3] is 25.8%; in [4], 25%; in [5], 28%; in series [7], 25.4%. This molecule also gave a percent bound in series [6] of 90%.

B1: Carboxylesterase-DTPA (conjugate)
chain: HPSAPPVVDTVHGKVLGKFVSLEGFAQPVAVFLGVPFAKPPLGSLRFAPPQPAESWSHVKNTTSYPPMCSQDAVSGHMLSELFTNRKENIPLKFSEDCLYLNIYTPADLTKRGRLPVMVWIHGGGLMVGGASTYDGLALSAHENVVVVTIQYRLGIWGFFSTGDEHSRGNWGHLDQVAALRWVQDNIANFGGDPGSVTIFGESAGGQSVSILLLSPLTKNLFHRAISESGVALLSSLFRKNTKSLAEKIAIEAGCKTTTSAVMVHCLRQKTEEELMEVTLKMKFMALDLVGDPKENTAFLTTVIDGVLLPKAPAEILAEKKYNMLPYMVGINQQEFGWIIPMQMLGYPLSEGKLDQKTATELLWKSYPIVNVSKELTPVATEKYLGGTDDPVKKKDLFLDMLADLLFGVPSVNVARHHRDAGAPTYMYEYRYRPSFSSDMRPKTVIGDHGDEIFSVLGAPFLKEGATEEEIKLSKMVMKYWANFARNGNPNGEGLPQWPAYDYKEGYLQIGATTQAAQKLKDKEVAFWTELWAKEAARPRETEHIEL
As for B1, in series [8], the enzymatic activity is recorded as 115 enzyme units/mg protein. The “complexation with bi-specific antibody (HPLC)” value with hMN-14 Fab′×734 Fab′ is “completely complexed”.
